T1: Pab-aCPSF1 (Pyrococcus abyssi, UniProt Q9V0P0 1-648)
T1 sequence: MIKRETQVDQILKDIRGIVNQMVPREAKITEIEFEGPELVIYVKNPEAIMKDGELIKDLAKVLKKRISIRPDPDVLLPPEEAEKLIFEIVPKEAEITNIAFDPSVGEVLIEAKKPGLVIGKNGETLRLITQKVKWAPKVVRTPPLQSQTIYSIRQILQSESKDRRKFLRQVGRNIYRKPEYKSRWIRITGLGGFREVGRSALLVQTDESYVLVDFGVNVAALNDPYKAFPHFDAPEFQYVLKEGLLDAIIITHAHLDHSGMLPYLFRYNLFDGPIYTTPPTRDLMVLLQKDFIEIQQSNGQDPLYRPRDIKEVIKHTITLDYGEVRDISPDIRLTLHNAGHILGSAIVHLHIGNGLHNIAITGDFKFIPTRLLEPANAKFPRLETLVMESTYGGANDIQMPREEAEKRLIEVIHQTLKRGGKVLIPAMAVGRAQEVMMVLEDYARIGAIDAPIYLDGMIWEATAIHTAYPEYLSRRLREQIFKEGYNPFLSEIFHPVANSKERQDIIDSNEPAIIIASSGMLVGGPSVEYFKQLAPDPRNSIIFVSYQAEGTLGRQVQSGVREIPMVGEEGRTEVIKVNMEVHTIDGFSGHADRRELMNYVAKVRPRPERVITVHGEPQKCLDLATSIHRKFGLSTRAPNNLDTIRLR

B1: sR47Mut21U (structured_RNA)
RNA: GAUGAAGAUGAUGAGCUCGGUAGGUCCUGAGGAGUGAUGAGGAUCUUGAGUGCUGAUUCACCUU
B2: sR47MutCG (structured_RNA)
RNA: GAUGAAGAUGAUGAGCUCGGCAGGUCCUGAGGAGUGAUGAGGAUCUGCUGAGUGCUGAUUCACCUU
B3: Pab-aCPSF1ΔKH (variant missing the first 179 residues of Pab-aCPSF1) (domain or fragment, Pyrococcus abyssi, UniProt Q9V0P0 180-648, looked up)
chain: EYKSRWIRITGLGGFREVGRSALLVQTDESYVLVDFGVNVAALNDPYKAFPHFDAPEFQYVLKEGLLDAIIITHAHLDHSGMLPYLFRYNLFDGPIYTTPPTRDLMVLLQKDFIEIQQSNGQDPLYRPRDIKEVIKHTITLDYGEVRDISPDIRLTLHNAGHILGSAIVHLHIGNGLHNIAITGDFKFIPTRLLEPANAKFPRLETLVMESTYGGANDIQMPREEAEKRLIEVIHQTLKRGGKVLIPAMAVGRAQEVMMVLEDYARIGAIDAPIYLDGMIWEATAIHTAYPEYLSRRLREQIFKEGYNPFLSEIFHPVANSKERQDIIDSNEPAIIIASSGMLVGGPSVEYFKQLAPDPRNSIIFVSYQAEGTLGRQVQSGVREIPMVGEEGRTEVIKVNMEVHTIDGFSGHADRRELMNYVAKVRPRPERVITVHGEPQKCLDLATSIHRKFGLSTRAPNNLDTIRLR

Legend:
Pab-aCPSF1 = target: T1, Pab-aCPSF1; experiment: EMSA
SEC = target: the molecule itself; experiment: SEC

Row | Binder | binding result (Pab-aCPSF1) | stoichiometry N (SEC)
1 | B1 | binds | –
2 | B2 | binds | –
3 | B3 | – | 2

From publication PMC3553952 (Nucleic Acids Research, 2012)
